Source: the domain aggregation screens of Martell et al. (2025)

Assay: soluble fraction after stress (log2 fold change); higher = more stays soluble; pooled small domains, quantitative proteomics
Conditions: stress: 50 degC
Summary of the method: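 The measure of aggregation propensity here is the base-two logarithm of the fold change in the soluble amount of each protein after stress. A higher value means more of that protein stays in solution. Stress was applied at 50°C to pooled libraries of small protein domains, read out by high-throughput quantitative proteomics.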

Sequence | soluble fraction (log2)
HMNLNLDITTYKLEELENLLKLKPNYKQEQIFEAKTKMEKFILKSNLNESKREELYIFLDNIYNKLTNNLL | -2.17
HMDLRIKEIMSERNVTSAWLAEKVGISKVAVSNIVTGKSSPSLDNLLKIADALNVSITTLIG | -0.824
HMNLSNVVIRKVQEMILSGELQEGDKLPPEREMTQRLGIGRPALREGLKSLEMLGLVERRHGLGNFIINKV | -0.783
HMTSTEQQIEQFIGTLVSLGGSAGNQRLLEALGWQDSIYQRVKQQLIDDGRIRPGRGRGGSVVLAE | -0.074
HMSRAAQRLFMSQPPLSRHIRQLEDRLGVTLFVRHTRGLTLTEDGQRVLEMVRPLLDLQDKTYAALSQLT | 0.382
HMNAVDLLSPQEQRIFELIGEGMSNRQIADVMYLAEKTVKNYVSNVLMKLGMERRTEAAALAARLDERQK | -0.114
HMTEFDVIMKSFGSEKIKVIKEVRAITGLGLAEAKALVEGVPAKIKEQVSKDDAEALKKQLEAVGAEVEL | 0.0379
HMKPPVQVIGKAVVTASSLNVRTGPGTGHGIITSLPRNTEVELLEQQGEWYKIRRGSTVGYVHGGYLKIN | -0.00404
HMGGGVERLTPRQREVLGYMAEGRSNSWIAGAIGFSEKAVVQHTSKIYDALGLAVDADDHRRVLAVLRYLT | -1.44
HMVMLIVMNHTASQADIDKVIEVVSGMGFTAAPIPGGERTAIGVLGNKGYVDDSTIRDLPGVQQAIHVSKP | 0.0615
HMRLADHVVEKLLALVQDRGLQPGQKLPAERQLAEELGVSRTSVREAIQKLTSQGVLSARRGDGTYLQS | 0.0556
HMGKQIKEIVEEYYDSTSKNSPVGGSWKTSLDGVDLTSPNITIWTRTKIKYVDGSESIVTPQSL | -0.0357
HMGTVIGMGRITAGGVNFRETEGGGVIEKLERDTLVEVLTVPSVIDTTHWYQVRYNNRTGYVQAPFVQLLG | -0.0951
HMDPAFAQHHDRALSILHSRGYEVHDSDTDLHWARPVLEFEAYKGSLEYKIVMSYPDLNIIEERVD | -1.06
HMVEPIKAPMPGMVLKILVEPGQQIEKGQGVLILEAMKMENVLKSSAAATVKSIKVSEKSAVEKGAILVEL | -0.109
HMDTMQQESMDTKSILATALMELTSRKNFAKITIADITHVSGFNRQTFYYHFRDKYELLSWIY | 0.0516
HMKSNESAELGERMLNKALLALHTDSSKISDTQWQKLLRDYGAKNKQEILTDIGLGKRLNVMVAHQLMAMG | -0.0795
HMLFSEKLKQAMQDLHLNQIQVVGLTGKSKGSISQYISGKQVPSEATQRDIAISLGLEENYFSKK | 0.282
HMRQPAAVEYSTFLDWVHASQVERVVFEGDTIRGVRVTGEGFVTYSPETDNTALIGELKKSRVQISATAP | -0.153
HMGNWENVEKETTEAIMAVKNGEAVWVDLAPANRMIRQMQHELVEQYGLLSQSYGKEPKRRIRIFQNP | -0.337
HMLAHSEFGARLRETRKRLGLSQSELGGDRYSGSYISHLESGRRAASAEVIEFLAGRLGVEVEELGM | -0.171
HMSPDALSNLPIGSEIKFTLWDGTEKRLVKHPAAYQFSRPFWMNLNEYTYVPVNRIPKNYEVIRL | -0.0581
HMPNQIKQIAVNTASVSDIATIPGISFDFAKEIWEFRILRQKIGSLSELQKIEGMTASKYALIELYLHI | -3.37
HMAMTITKIEKTSQQKIYYFTDSGRVFKKMSDRSATIAVDDRVELEGGVLGSKFFVTANGSRVKVKEV | -0.516
HMELAALKILNSPIGKIAIGTSENGLVKLDILTSGQTRAEFSDLPKAHKLALDAADQLAAYF | 0.0579
HMIPSEQYNTALTEIGLSTRAHNSLRRAGIMTLGQLIEKTRDGLPPLPGFGDKSQVEVQDLLTGLGYPI | -0.203
HMRPKAIFVDVDDTLVRSVGQTRIPMPAVIAHIRRLHDAGHQLYLWSSGGADYARASAEELGIGQYFQAFL | -0.26
HMERTVEVVDINDVFSQFLRLYSRERAAGLLSVFKRVEHGLSWQGNPVLLERILSNVFENAIKYAA | -0.0515

Sequence | soluble fraction (log2)
HMKQLVVVPRVVSLSEGKAREDVGDRGLVVDRVEMDTLRTPYENTVTRQEPAADSRVPVGTRVTLWISPGV | 0.261
HMRDQQHNIYLLEKAKRLYEEFLGDNRHIIAAEMARFEAVLETQDAIIIQRAQQQFSEFLNRFDG | -1.63
HMKQVEVPRLVGLTLREAQAVLGQVGLRIGLISRAALLASPREQIVEQIPVAGERNIATPYVNLLVNVP | -0.649
HMPPFTYHLERAKRKTVGFIVDERGVTVRAPRWVSVSEIEKMLQTKEAWIQKKLTEFHNWQKE | -3.11
HMKTELAYDFHSRIRDARIREGLSQVDLAKRMNEKIAVIQKAENGIRPTDSLIAKFSKALSVELYVE | -1.26
HMGRPQISDELRNAIIEVAKDNRDWGYIRIQGQLKYLGYRVSTATIGKVLKKAGLEPQPDRRRK | -0.264
HMNKFADLAGNIIYNENGVEVFNFGKYKGQPVAEVFKKDIGYYGWIQNADFPRYTKKVFTAIQLKSK | -1.22
HMDHTYKHIELTGSSEKGIEEAVQNALAKASESVQNMRWLEVTDTRGHIEDGRVAHWQVTVKVGFTL | -0.0248
HMEIGLIRVDSRLIHGQVITKWLNYSKANVIVVVDDELSKDSFMSEIYKASAPNGIIVEILSIDDFMKNT | 0.00544
HMREVDKRYYKINIAGTDRIFTNVYRVGDRYSAYEADKNGKPGKFLYSLSQAEIDRAVISGSFDFK | 0.105
HMKEGTIPPVVNRTLSDAEFVLKSYGYELGRVSEQHSDMPKDIVIKQSPEAGTVADPGTRVDVVVSIGKA | 0.404
HMDTVSYMSDAVKAGAVTPSHDEEARARYLLYAGFGAILLFLRYEASEPGDIESAIREFMERYGPVTAELY | 0.243
HMTTVDYDALRAAILQQVVSEDTTPALTTENTEIKYKFKFGLDTWVDLDGGKIAPAVSAKSYEIQISFKG | 0.132
HMAELNLPVRKIGGEDYYYRQVKKKETIYGISKELGITKEDIIKYNPSVASGLQRNQILYFPVKDFK | -0.0957
HMFSNATISGLKAGALVRVYNISGVAVSTLTADAEGKVSVDLNNLPKGVYILSTPSKSFKVLN | -0.54
HMIAKEDDGTAFLIDGKISSEEEFKTISKDDILEVFVYKETEIAQKKLDSINSINNTYYTSLIEILLKE | -0.127
HMGETYTIPDVRGYTLEDAMELPEIKENGFTIIEGRQIVDADVPVGQIISQTPEAESIAKSNVKEITVNIS | 0.0323
HMQQNDMTELRALAEKIISENDSVINDYKSGQGSALQFLIGQAMKETKGSANPQVISEIFTDLL | -0.225
HMQLGSILAYKFPQFGGIDGAWQVRDDSNGTGPYIAFWDAKTIGRGMPTEDELTAWAQEYEA | -0.153
HMGGLIEPLSARELEVLELMSLGKTNQEIARDLVVASGTIKAHAASIYRKLDAANRTEAVTHARELGIL | -0.0084
HMSFTDLILKSANAIDEMGGIWENGKQILGEKAIAIHEEIVDNGLNPDKDGFYKLANGQMIQYG | -0.000487
HMTLDDSIALGRSLLDKGLMDFGTNLANLAEDKLRDFLSQQRYENLDDLFADIARGNRLPMFTAQQLLS | -0.187
HMNNIINEAQIKQWVEEFYLSVSPRPTRATMIALVHKKIKEETKDGEEGQTVSETLINNFYTALEKEHKRK | -0.0384
HMASINRIENKNGKVVYRIIVSLGYDKQGKKLKKTITYNVNQTATKKQQENEALKYALDIEDKIKNGHD | -1.44
HMNPGQIIRKLRQDQGMTLAVLAKYANLDPGNLSRIERDDLNISFNLLEKLSLILNVSPIVFFH | -0.154
HMVRKIQAKLVLRLHAQGLSGRAIARSQGMSRRSVSDVLDAARAVGVGWDDVTGKTDGEVYALLFPGRG | -2.47
HMSTQYKTGHYKTTDALNLRASYSTSSNVLLTIPKGKTIVVTRVHNNEWGQVEYNGKTGWIYLEYTAYTES | 0.0697
